{
  "source": "paper PMC12776367",
  "about": "(Journal of the American Society of Nephrology : JASN, 2025)",
  "binders": {"B1": {"name": "His-tagged human testican-2 (2328-PI, R&D Systems) (natural protein, UniProt Q92563 23-424, looked up)", "chain": "EGDAKGLKEGETPGNFMEDEQWLSSISQYSGKIKHWNRFRDEVEDDYIKSWEDNQQGDEALDTTKDPCQKVKCSRHKVCIAQGYQRAMCISRKKLEHRIKQPTVKLHGNKDSICKPCHMAQLASVCGSDGHTYSSVCKLEQQACLSSKQLAVRCEGPCPCPTEQAATSTADGKPETCTGQDLADLGDRLRDWFQLLHENSKQNGSASSVAGPASGLDKSLGASCKDSIGWMFSKLDTSADLFLDQTELAAINLDKYEVCIRPFFNSCDTYKDGRVSTAEWCFCFWREKPPCLAELERIQIQEAAKKKPGIFIPSCDEDGYYRKMQCDQSSGDCWCVDQLGLELTGTRTHGSPDCDDIVGFSGDFGSGVGWEDEEEKETEEAGEEAEEEEGEAGEADDGGYIW"}, "B2": {"name": "deglycosylated human testican-2 (natural protein, UniProt Q92563 23-424, looked up)", "chain": "B1 chain", "modifications": "deglycosylated (Protein Deglycosylation Mix II kit)"}, "B3": {"name": "His-tagged mouse testican-2 (MBS1458329, MyBioSource) (natural protein, UniProt Q9ER58 23-423, looked up)", "chain": "EGDAKGLKEGETPGNFMEDEQWLSSISQYSGKIKHWNRFRDEVEDDYIKSWEDNQQGDEALDTTKDPCQKVKCSRHKVCVAQGYQRAMCISRKKLEHRIKQPSLKLHGGKDSVCKPCHMAQLASVCGSDGHTYSSVCKLEQQACLSSKQLAVRCEGPCPCPTEQSTASTTDSKSETCTGQDLADLGDRLRDWFQLLRENSKQNGSANSATNPAGLDKSLGASCKDSIGWMFSKLDTSGDLFLDQTELAAINLDKYEVCIRPFFNSCDTYKDGRVSTAEWCFCFWREKPPCLAELERTQIQEAAKKKPGVFIPSCDEDGYYRKMQCDQSRGDCWCVDQLGLELTGTRMHGTPDCDDIVGFSGDFGSGVGWEDEEEKETEEAGEEAEEEEGEAGEADDGGYIW"}},
  "key": {"[1]": {"biological_target": "human vitronectin (2349-VN, R&D Systems) (human, UniProt P04004 20-478)", "sequence (P04004 20-478)": "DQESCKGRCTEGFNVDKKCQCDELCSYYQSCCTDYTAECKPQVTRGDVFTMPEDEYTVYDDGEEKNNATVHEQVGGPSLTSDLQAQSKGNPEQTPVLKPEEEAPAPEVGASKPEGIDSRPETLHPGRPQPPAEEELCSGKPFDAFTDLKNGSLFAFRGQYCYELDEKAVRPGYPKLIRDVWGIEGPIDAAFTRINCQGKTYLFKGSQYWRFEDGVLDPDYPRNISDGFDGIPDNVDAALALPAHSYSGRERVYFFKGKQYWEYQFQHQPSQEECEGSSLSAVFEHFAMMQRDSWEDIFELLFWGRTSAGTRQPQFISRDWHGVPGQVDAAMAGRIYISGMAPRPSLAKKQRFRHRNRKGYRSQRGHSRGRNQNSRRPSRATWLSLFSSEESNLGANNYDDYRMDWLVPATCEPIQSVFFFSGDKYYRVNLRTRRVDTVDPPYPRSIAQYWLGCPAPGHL", "assay": "BLI"}, "[2]": {"biological_target": "T1, mouse vitronectin (ab92727, Abcam) (mouse, UniProt P29788 20-478)", "T1 sequence (looked up)": "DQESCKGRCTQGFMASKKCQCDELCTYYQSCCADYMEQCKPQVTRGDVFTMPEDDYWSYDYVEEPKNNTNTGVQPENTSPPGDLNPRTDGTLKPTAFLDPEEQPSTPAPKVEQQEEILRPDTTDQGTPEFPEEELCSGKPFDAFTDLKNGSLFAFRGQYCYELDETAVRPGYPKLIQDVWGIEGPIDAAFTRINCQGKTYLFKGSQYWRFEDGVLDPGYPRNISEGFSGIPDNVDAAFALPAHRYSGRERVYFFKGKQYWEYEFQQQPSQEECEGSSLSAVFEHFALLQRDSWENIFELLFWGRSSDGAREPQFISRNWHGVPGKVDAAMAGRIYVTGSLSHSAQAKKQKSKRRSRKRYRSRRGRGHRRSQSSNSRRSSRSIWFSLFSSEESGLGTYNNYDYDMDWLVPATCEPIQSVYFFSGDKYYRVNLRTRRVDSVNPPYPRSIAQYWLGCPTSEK", "assay": "BLI"}},
  "data": [
    {"binder": "B1", "values": [
      {"measurement": "Kd", "setting": "[1]", "result": "37.4 ± 0.6", "unit": "nM"}
    ]},
    {"binder": "B2", "values": [
      {"measurement": "Kd", "setting": "[1]", "result": "348 ± 12.4", "unit": "nM"}
    ]},
    {"binder": "B3", "values": [
      {"measurement": "Kd", "setting": "[2]", "result": "63.7 ± 2.3", "unit": "nM"}
    ]}
  ]
}
